Data as given in patent US20220242950A1 (CANTARGIA, published 2022).
Where two headings read alike, the source gives them in different places.

T1: human IL1RAP on the cell surface (human, UniProt Q9NPH3 21-570)
T1 sequence (looked up): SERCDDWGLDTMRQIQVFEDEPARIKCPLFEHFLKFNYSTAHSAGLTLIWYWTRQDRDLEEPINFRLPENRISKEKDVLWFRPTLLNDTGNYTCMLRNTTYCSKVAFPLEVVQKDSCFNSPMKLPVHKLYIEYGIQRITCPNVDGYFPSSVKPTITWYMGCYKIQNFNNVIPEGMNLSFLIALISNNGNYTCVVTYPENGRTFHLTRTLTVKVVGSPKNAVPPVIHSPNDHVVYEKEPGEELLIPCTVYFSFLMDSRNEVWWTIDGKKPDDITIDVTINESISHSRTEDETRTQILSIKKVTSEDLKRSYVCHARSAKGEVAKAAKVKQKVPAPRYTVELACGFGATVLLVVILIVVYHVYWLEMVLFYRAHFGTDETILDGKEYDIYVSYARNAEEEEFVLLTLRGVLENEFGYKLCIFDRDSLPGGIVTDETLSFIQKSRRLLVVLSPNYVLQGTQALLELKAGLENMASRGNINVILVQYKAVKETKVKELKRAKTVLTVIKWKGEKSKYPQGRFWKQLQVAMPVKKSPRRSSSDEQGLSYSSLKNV

T2: recombinant hIL1RAP Domain1+2+3 (aa21-367) (human, UniProt Q9NPH3 21-367)
T2 construct: Numbering on Uniprot Q9NPH3
T2 sequence (looked up): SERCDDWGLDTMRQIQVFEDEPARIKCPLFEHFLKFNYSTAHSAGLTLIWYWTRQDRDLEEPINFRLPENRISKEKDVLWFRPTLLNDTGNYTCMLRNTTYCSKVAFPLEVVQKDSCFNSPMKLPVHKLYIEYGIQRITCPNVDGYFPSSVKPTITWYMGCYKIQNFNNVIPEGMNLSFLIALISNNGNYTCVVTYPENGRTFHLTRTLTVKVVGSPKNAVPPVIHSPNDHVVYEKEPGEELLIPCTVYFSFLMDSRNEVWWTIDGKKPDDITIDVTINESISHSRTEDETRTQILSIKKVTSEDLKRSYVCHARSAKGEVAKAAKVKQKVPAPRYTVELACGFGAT

T3: recombinant mf IL1RAP aa21-367 (cynomolgus monkey (Macaca fascicularis), UniProt A0A2K5X5J5 21-367)
T3 construct: also called cynomolgus monkey IL1RAP; cyno IL1RAP
T3 sequence: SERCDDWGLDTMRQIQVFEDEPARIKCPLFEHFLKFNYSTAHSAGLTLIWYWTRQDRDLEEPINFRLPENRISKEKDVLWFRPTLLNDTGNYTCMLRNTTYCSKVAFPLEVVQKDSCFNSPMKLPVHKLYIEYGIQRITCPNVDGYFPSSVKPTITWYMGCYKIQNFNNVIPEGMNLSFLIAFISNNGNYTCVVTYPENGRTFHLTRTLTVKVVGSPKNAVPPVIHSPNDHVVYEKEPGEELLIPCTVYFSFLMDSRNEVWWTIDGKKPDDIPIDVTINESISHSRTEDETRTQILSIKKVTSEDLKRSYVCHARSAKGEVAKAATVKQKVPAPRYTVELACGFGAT


Tests used:
[1] = target: T1, human IL1RAP on the cell surface; assay: cell-based or functional assay
[2] = target: T2, recombinant hIL1RAP Domain1+2+3 …; assay: bio-layer interferometry, human IL1RAP
Procedure: (§1) Affinity measurements were done on BLItz™ Label-Free Protein Analysis System from ForteBio, using the Basic Kinetics module in the BLItz Pro 1.3.1.3 software from Molecular Devices. Protein A biosensors were hydrated in blocking buffer (PBS, 0.5% BSA, 0.05% Tween 20, pH 7.4) for minimum 10 min at room temperature before coating. Protein A biosensors were coated with antibodies by dipping the biosensors in 200 μl of antibody solution (10 μg/ml in blocking buffer) for 30 min at room temperature. The sensors were then incubated in 200 μl blocking buffer for at least 10 min before use. […] The baseline was made in blocking buffer with a duration time of 30 sec. Association was made for 120 sec in hIL1RAP followed by 120 sec dissociation in blocking buffer.
KD values for affinity towards human IL1RAP are shown in Table 17 for the de-immunized h48D2 variants. Affinity was measured using bio-layer interferometry. […] See also Table 4 for a direct comparison of 48D2, humanized 48D2, and de-immunized h48D2.

[3] = target: T1, human IL1RAP on the cell surface; assay: cell-based or functional assay; remark: listed apart in the source
[4] = target: T2, recombinant hIL1RAP Domain1+2+3 …; assay: bio-layer interferometry, human IL1RAP; remark: listed apart in the source
Procedure: as §1
The antibodies were characterized for A) binding (ELISA analysis, human and cynomolgus monkey IL1RAP), B) inhibition of cytokine signaling (HEK-Blue™ assay), C) affinity (Bio-layer interferometry), D) size heterogeneity (SE-HPLC) and E) yield (concentration, A280). […] SE-HPLC was performed using standard procedures and PBS as running buffer. Affinity and cytokine inhibition were measured as previously described in Example 10. All 25 humanized clones were analyzed for blocking activity on IL-1α, IL-1β and IL-33 signaling while only the clones that had retained the inhibitory activity similar to chimeric 48D2 were analyzed for IL-36 inhibition.
KD values for affinity towards human IL1RAP are shown in Table 11 for the humanized 48D2 variants. Affinity was measured using bio-layer interferometry. […] See also Table 4 for a direct comparison of chimeric 48D2, humanized 48D2 variant VH5:VL4, and a humanized and de-immunized 48D2 variant VH5.GL:VL4.

[5] = target: T2, recombinant hIL1RAP Domain1+2+3 …; assay: binding ELISA, coated recombinant hIL1RAP aa21-367
[6] = target: T3, recombinant mf IL1RAP aa21-367; assay: binding ELISA, coated recombinant mf IL1RAP aa21-367

Row | Binder | IC50 of IL-1α signaling (HEK-Blue assay) [1] [nM] | IC50 of IL-1β signaling (HEK-Blue assay) [1] [nM] | IC50 of IL-33 signaling (HEK-Blue assay) [1] [nM] | IC50 of IL-36α signaling (HEK-Blue assay) [1] [nM] | IC50 of IL-36β signaling (HEK-Blue assay) [1] [nM] | IC50 of IL-36γ signaling (HEK-Blue assay) [1] [nM] | Kd [2] [nM] | IC50 of IL-1β signaling (HEK-Blue assay) [3] [nM] | IC50 of IL-33 signaling (HEK-Blue assay) [3] [nM] | Kd [4] [nM] | IC50 [5] [mg/L] | IC50 [6] [mg/L]
1 | h48D2 VH5.AP:VL4 (antibody, human IgG1, kappa, L234A L235A, V domains shown, Humanized and de-immunized; also called VL4:VH5.AP) VH: QEQLEESGGGLVKPGGTLSLTCTVSGPSLSHFDITWIRQPPGSGLEWIGTISPGVSTYYASWAKSRVTISVDTSLNTVSLKLSSVTAADTATYFCARGGVGSSWKAFDLWGPGTLVTISS VL: ELVMTQSPSSVSASVGDRVTITCQASESISTALAWYQQKPGKAPKLLIYKASTLPSGVPSRFSGSGSGTDFTLTINSLQPEDFATYYCQQGFSSGNVHNAFGGGTKVEIKR | 0.209 | 0.122 | 1.48 | 0.132 | 0.146 | 0.182 | 1.7 | – | – | – | – | –
2 | h48D2 VH4:VL4 (antibody, human IgG1, kappa, L234A L235A, V domains shown, Humanized; also called VL4:VH4) VH: QVQLQESGPGLVKPSETLSLTCTVSGPSLSHFDITWIRQPPGKGLEWIGTISPGVSTYYASWAKSRFTISVDTSKNQFSLKLTSVTAADTATYYCARGGVGSSWKAFDLWGPGTLVTVSS VL: ELVMTQSPSSVSASVGDRVTITCQASESISTALAWYQQKPGKAPKLLIYKASTLPSGVPSRFSGSGSGTDFTLTINSLQPEDFATYYCQQGFSSGNVHNAFGGGTKVEIKR | – | – | – | – | – | – | – | 4.67 | 260 | 22.8 | 0.0243 | 0.0251
3 | h48D2 VH5:VL5.GL (antibody, human IgG1, kappa, L234A L235A, Humanized and de-immunized; also called VL5.GL:VH5) heavy: not shown light: DIQMTQSPSTLSASVGDRVTITCQASESISTALAWYQQKPGQPPKLLIYKASTLPSGVPSRFSGSGSGTEFTLTISDLESDDAATYYCQQGFSSGNVHNAFGGGTEVVVKRTVAAPSVFIFPPSDEQLKSGTASVVCLLNNFYPREAKVQWKVDNALQSGNSQESVTEQDSKDSTYSLSSTLTLSKADYEKHKVYACEVTHQGLSSPVTKSFNRGEC | 0.236 | 0.105 | 7.83 | 0.158 | 0.165 | 0.217 | 0.752 | – | – | – | – | –
4 | h48D2 VH5.SK:VL4 (antibody, human IgG1, kappa, L234A L235A, V domains shown, Humanized and de-immunized; also called VL4:VH5.SK) VH: QEQLEESGGGLVKPGGTLSLTCTVSGPSLSHFDITWIRQAPGKGLEWIGTISPGVSTYYASWAKSRVTISVDTSLNTVSLKLSSVTAADTATYFCARGGVGSSWKAFDLWGPGTLVTISS VL: ELVMTQSPSSVSASVGDRVTITCQASESISTALAWYQQKPGKAPKLLIYKASTLPSGVPSRFSGSGSGTDFTLTINSLQPEDFATYYCQQGFSSGNVHNAFGGGTKVEIKR | 0.213 | 0.099 | 5.44 | 0.143 | 0.108 | 0.17 | 2 | – | – | – | – | –
5 | h48D2 VH4:VL3 (antibody, human IgG1, kappa, L234A L235A, V domains shown, Humanized; also called VL3:VH4) VH: QVQLQESGPGLVKPSETLSLTCTVSGPSLSHFDITWIRQPPGKGLEWIGTISPGVSTYYASWAKSRFTISVDTSKNQFSLKLTSVTAADTATYYCARGGVGSSWKAFDLWGPGTLVTVSS VL: DILLTQTPSVVSASVGDRVTITCQASESISTALAWYQQKPGQAPRLLIYKASTLPSGVPSRFRGSGSGTDFTLTITSLQPEDFATYYCQQGFSSGNVHNAFGGGTRLEIKR | – | – | – | – | – | – | – | 2.97 | 7030 | 16.7 | 0.0312 | 0.0302
6 | h48D2 VH4:VL5 (antibody, human IgG1, kappa, L234A L235A, V domains shown, Humanized; also called VL5:VH4) VH: QVQLQESGPGLVKPSETLSLTCTVSGPSLSHFDITWIRQPPGKGLEWIGTISPGVSTYYASWAKSRFTISVDTSKNQFSLKLTSVTAADTATYYCARGGVGSSWKAFDLWGPGTLVTVSS VL: APVLTQSPATLEASVGDRVTITCQASESISTALAWYQQKPGQPPKLLIYKASTLPSGVPSRFSGSGSGTEFTLTISDLESDDAATYYCQQGFSSGNVHNAFGGGTEVVVKR | – | – | – | – | – | – | – | 0.273 | 74.3 | 15 | 0.0258 | 0.0244
7 | h48D2 VH5.AP:VL5 (antibody, human IgG1, kappa, L234A L235A, Humanized and de-immunized; also called VL5:VH5.AP) heavy: not shown light: APVLTQSPATLEASVGDRVTITCQASESISTALAWYQQKPGQPPKLLIYKASTLPSGVPSRFSGSGSGTEFTLTISDLESDDAATYYCQQGFSSGNVHNAFGGGTEVVVKRTVAAPSVFIFPPSDEQLKSGTASVVCLLNNFYPREAKVQWKVDNALQSGNSQESVTEQDSKDSTYSLSSTLTLSKADYEKHKVYACEVTHQGLSSPVTKSFNRGEC | 0.178 | 0.098 | 1.68 | 0.149 | 0.134 | 0.191 | 1.96 | – | – | – | – | –
8 | h48D2 VH5.AP:VL5.GL (antibody, human IgG1, kappa, L234A L235A, Humanized and de-immunized; also called VL5.GL:VH5.AP) heavy: not shown light: DIQMTQSPSTLSASVGDRVTITCQASESISTALAWYQQKPGQPPKLLIYKASTLPSGVPSRFSGSGSGTEFTLTISDLESDDAATYYCQQGFSSGNVHNAFGGGTEVVVKRTVAAPSVFIFPPSDEQLKSGTASVVCLLNNFYPREAKVQWKVDNALQSGNSQESVTEQDSKDSTYSLSSTLTLSKADYEKHKVYACEVTHQGLSSPVTKSFNRGEC | 0.204 | 0.107 | 2.97 | 0.178 | 0.162 | 0.19 | 1.5 | – | – | – | – | –
9 | h48D2 VH5.SK:VL5 (antibody, human IgG1, kappa, L234A L235A, Humanized and de-immunized; also called VL5:VH5.SK) heavy: not shown light: APVLTQSPATLEASVGDRVTITCQASESISTALAWYQQKPGQPPKLLIYKASTLPSGVPSRFSGSGSGTEFTLTISDLESDDAATYYCQQGFSSGNVHNAFGGGTEVVVKRTVAAPSVFIFPPSDEQLKSGTASVVCLLNNFYPREAKVQWKVDNALQSGNSQESVTEQDSKDSTYSLSSTLTLSKADYEKHKVYACEVTHQGLSSPVTKSFNRGEC | 0.172 | 0.061 | 2.87 | 0.136 | 0.125 | 0.157 | 2.8 | – | – | – | – | –
